{
  "source": "paper PMC12705809",
  "target": "Chaetomium thermophilum Pmt4 (protein O-mannosyltransferase 4), wild-type full-length (Chaetomium thermophilum)",
  "assay": "native MS; ctPmt4 purified in DDM, exchanged into 200 mM ammonium acetate pH 8.0 with 2x CMC detergent; Q Exactive UHMR, negative polarity; monomer and dimer peaks seen",
  "data": [
    {"substance": "Chaetomium thermophilum Pmt4 (protein O-mannosyltransferase 4), wild-type full-length (enzyme)", "values": [
      {"measurement": "stoichiometry N", "value": 2}
    ]}
  ]
}
